This note sets out measurements from the nanobody polyreactivity screen of Harvey et al. (2022).

This data set can be described thus: yeast display, Sf9 membrane polyspecificity reagent, FACS + sequencing; frameworks hold sequencing errors. The essentials: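 Synthetic nanobody libraries on Saccharomyces cerevisiae BJ5465 were galactose-induced for 36–48 hours, stained 1 hour at 4 °C with 10% biotinylated, detergent-solubilized Sf9 membrane reagent and enriched on streptavidin microbeads. FACS then separated cells into low and high (top ~1%) gates by anti-HA (expression) and streptavidin (reagent binding) fluorescence. Genes were colony-PCR amplified, MiSeq 2 × 250 sequenced and CDR-length filtered. A clone's polyreactivity label is that of its gate of origin.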
“QVQLVESGGGLVHAGGSLRLSCAASGRLFYPYAMGWYRQAPGKERELVAAITYITGSTYADSVKGRFTISRDNAKNTVYLQMNSLKPEDTAVYYCAADYESGDYWGQGTQVTVSS”: the “polyreactivity (PSR sort gate)” value is “low polyreactivity”.

“QVQLVESGGGLVHAGGSLRLSCAASGRTFATNTIGWYRQAPGKERELVAAITFSGGSTYYADSVKGRFTISRDTAKIPRYLQMNCLKPEDNEVYYCNVRSPYYSYRYRYGYWGQGSQVTVSS”: the “polyreactivity (PSR sort gate)” value is given as “high polyreactivity”.

Turning to “QVQLVESGGGLVHAGGSLRLSCAASGRTFATYAMGWYRQAPGKERELVAAITSGGSTYYADSVKGRFTISRDNAKNTVYLQMNSLKPEDTAVYYCAADLSTYRRGFDYWGQGTHVTVSS”, the “polyreactivity (PSR sort gate)” value was “high polyreactivity”.

“QVQLVESGGGLVHAGGSLRLSCAASGRTFGIYTMGWYRQAPGKERELVASTYYADSVKGRFTISRDNAKNTVYLQMNSLKPEDTAVYYCNVERLKKSQVWYGYPNDYWGQGTQVTVSS”: the “polyreactivity (PSR sort gate)” value is “low polyreactivity”.

With “QVQLVESGGGLVHAGGSLRLSCAASGRTFWAYAMGWYRQAPGKERELVAAISASRGSTYYADSVKGRFTISRDTAKNTVYLEMNSLTAEDTAVYYCRLVSNGRLYDYWGQGTQATVSS”, the “polyreactivity (PSR sort gate)” value is “low polyreactivity”.

Regarding “QVQLVESGGGLVHAGGSLRLSCAASGRTFYPNVMGWYRQAPGKERELVAAIRARGGSTYYADSVKGRFTISRDNAKNTVYLQMNSLKPEDTAVYYCARDTGDYLQFDYWGQGTQVTVSS”, the “polyreactivity (PSR sort gate)” value is “high polyreactivity”.

Take “QVQLVESGGGLVHAGGSLRLSCAASGRTIGYYAMGWYRQAPGKERELVAAISWSGGSTYYADSVKGRFTISRDIAKNTVYLQMNSLKPEATAVYYCAAKYSFRAAHYYYWGQGTQVTVSS”: the “polyreactivity (PSR sort gate)” value is “high polyreactivity”.

As to “QVQLVESGGGLVHAGGSLRLSCAASGRTLWGYVMGWYREAPGKERELVAVITASGGSTYYADSVNGRFTISRDNAKNTVYLQMYSLKPEDTAVYYCNADSRAERYFWSFVENDYWVQGTQVTVSS”, the “polyreactivity (PSR sort gate)” value is “low polyreactivity”.

For “QVQLVESGGGLVHAGGSLRLSCAASGRTLWYYTMGWYRQAPGKEMELVADITRGTSTNYADSVKGRFTISRDNAKNTVYLQMNILKPEDTAVYYCNRAHGRSRYSRDYDSWGQGTQVTVSS”, the “polyreactivity (PSR sort gate)” value is on record as “low polyreactivity”.

“QVQLVESGGGLVHAGGSLRLSCAASGSIFAYYAMGWYRQAPGKERELVARITYSTDGTYYADSVKGRFTISRDNAKNTVYLQMNSLKPEDTAVYFCAVDTWWGFKRYKFDYWGQGTQVTVSS”: the “polyreactivity (PSR sort gate)” value is reported as “low polyreactivity”.

For the sequence “QVQLVESGGGLVHAGGSLRLSCAASGSIFGIYTMGWYRQAPGKERELVARINLSGGITYYADSVKGRFKISRDNAKNTVYLQMNSLKPEDTAVYYCNARTVNFPYDYWGQGTQVTVSS”, the “polyreactivity (PSR sort gate)” value is reported as “low polyreactivity”.

In the case of “QVQLVESGGGLVHAGGSLRLSCAASGSIFGVNARGWYRPAPGKERELVAAISSTGSRTYYADSVQGRFTISRDNAKNTVYLQRNSLKPEETAVYYCAAYLTRYGAYYWGQGTQVTVSS”, the “polyreactivity (PSR sort gate)” value was “high polyreactivity”.

Turning to “QVQLVESGGGLVHAGGSLRLSCAASGSIFGWYVMGWYRQAPGKERELVAAISSVGSTYYADSVKGRFTISRDNAKNTVCLQMNSLKPEDTAVYYCAKLRYPYLFWDDSEYWGQGTQVTVSS”, the “polyreactivity (PSR sort gate)” value is recorded as “low polyreactivity”.

Turning to “QVQLVESGGGLVHAGGSLRLSCAASGSIFHFNAMGWYRQAPGKERELVARISIGGGSTYYADSVKGRFTISRDNAKNTVYFQMNSLKPEDTAVYSCAVDGSPRNKYDYWGQGTQVTVSS”, the “polyreactivity (PSR sort gate)” value is “high polyreactivity”.

For “QVQLVESGGGLVHAGGSLRLSCAASGSTFFPYDMGWYRPEPGTERYFVAGISSDGGTSYADSVKGRFTISRDNAKNTVYLQMNSMKPEDTAVYDCAALQADGDRYPEFDLMDYWGQGSQVTVSS”, the “polyreactivity (PSR sort gate)” value is given as “low polyreactivity”.

Turning to “QVQLVESGGGLVHAGGSLRLSCAASGSTFSRYAMGWYRQAPWKERELVAAISWSGASTYYADSVKWRFTISRDNAKNTVYLQMNSLKPEDTSVYYCAKVARQNWFRYNYDYWGQGTQVTVSS”, the “polyreactivity (PSR sort gate)” value is listed as “high polyreactivity”.

Consider “QVQLVESGGGLVHAGGSLRLSCAASGSTFVRNAMGWYRQAPGKERELVAAITSRGGSTYYADSVKGRFTISRDNAKNTVYLQMNSLKPEDTAVYYCAARFGVKRGQYDYWGQGTQVTVSS”, for which the “polyreactivity (PSR sort gate)” value was “high polyreactivity”.

In the case of “QVQLVESGGGLVHAGGSLRLSCAASGTIFYRNAMGWYRQAPGKERELVAAITSRGGRTYYADSVKGRFTISRDNAKNTVYLQMNSLKPEDTAVYDCNKRYVYSTSDYDYWGQGTQVTVSS”, the “polyreactivity (PSR sort gate)” value is given as “high polyreactivity”.

As to “QVQLVESGGGLVHAGGSLRLSCAASGYIFTRNMGWYRQAPGKERELVAAITWSGGSTYYADSVKGRFTISRDNAKNTVYLQINSLKPEDTAVYYCAADYGWSVGRRYYYWGQGTQVTVSS”, the “polyreactivity (PSR sort gate)” value was “high polyreactivity”.

For “QVQLVESGGGLVHAGGSLRLSCAASGYIIGYYTMGWYRQAPGKERELVATIRSGGSTYYADSVKGRFTISRDNANNSVYLQINSLKPEDTAVYYCAKRVRRISEYGYWGQGTHVTVSS”, the “polyreactivity (PSR sort gate)” value is recorded as “high polyreactivity”.

For the sequence “QVQLVESGGGLVHAGGSLRLSCAASGYTFGNNAMGWYIQAPGKERELVASIRTNGGTTYYADSVKGRFTISRDNAKNTVYLQMNSLKPEDTAVYYCNAYRGYEYDYWGQGTQVTVSS”, the “polyreactivity (PSR sort gate)” value is given as “low polyreactivity”.

Regarding “QVQLVESGGGLVHAGGSLRLSCAASVSTFLFYAMGWYRQAPGKEREFVAAITWSGGSTYYADSVKGRFTISRDNAKNTVYLQMNSLKPEDTAVYYCNGYYVPTTGREFYFAFYYWGQGTQVTVSS”, the “polyreactivity (PSR sort gate)” value was “low polyreactivity”.

Take “QVQLVESGGGLVHAGGSLRLSCAAYGRTFKYNAMGWNRQAPGKERELVAAISSRGGSTYYADSVKGRFTISRDNAKNTVYLQMNSLKPEDTAVYYCAIATSSSEYGYDYWGQGTQVTVSS”: the “polyreactivity (PSR sort gate)” value is reported as “high polyreactivity”.

With “QVQLVESGGGLVHAGGSLRLSCADSGFTFGAYAMGWYRQAPGKERELVATITNSGRTYYADSVKGRFTISRDNAKNTVYLQMNSLNPEDTAVYYCAAQPDGQAMEHWGQGTQVTVSS”, the “polyreactivity (PSR sort gate)” value is “low polyreactivity”.

For the sequence “QVQLVESGGGLVHAGGSLRLSCAPSAFTFAYYAMGWYRQAPGKEREFVAAITKGGGSTNYADSVKGRFTISRDNAKNTVYLQMYSLKPEDTAVYYSNADYFVWYIGRVFSRYGYWGQGTQVTVSS”, the “polyreactivity (PSR sort gate)” value was “low polyreactivity”.

Regarding “QVQLVESGGGLVHAGGSLRLSCAPSGSIFGPYAMGWYIQAPGKERELVAAIRSGGSTNYADSVKGRFTISRDNAKNTVYLQMNSLKPDDTSVYYWAGEYWGYPYDYWGQGTQVTVSS”, the “polyreactivity (PSR sort gate)” value was “low polyreactivity”.

On to “QVQLVESGGGLVHAGGSLRLSCASSGSIFIRNAMGWYRQAPGKERELVASISRSGASTRYADSVKGLFTISRDNAKNTVYLQMNSLNPEDTAVYYCNDVIRRYFVPSSYDYWGQGTQVTVSS”, for which the “polyreactivity (PSR sort gate)” value was “high polyreactivity”.

Regarding “QVQLVESGGGLVHAGGSLRLSCPADGSTFVLNAIGWYRQAPGKERQLVAGISYGTGSTYYADSVKGRFTISRDHAKNTVYLQMNSLKPEDTAVYYCATDFDGYSIGMYYWGQGNQVTVSS”, the “polyreactivity (PSR sort gate)” value is listed as “low polyreactivity”.

Regarding “QVQLVESGGGLVHAGGSLRLSCSASGYTFAYNAMGWYRQAPGKERELVAAITSRAGSTHYADSVKGRFTISRDNAKNTVYLQMNSLKPEDTAVYYCAAKRYNRLRSYRYSDREDYWGQGTQVSVSS”, the “polyreactivity (PSR sort gate)” value is given as “high polyreactivity”.

“QVQLVESGGGLVHAGGSLRLSCSASRFIFDKNSMGWYIQAPGKERELVAAISYGDGRTYYADSVKGRFTISRDNAKNTVYLHMNSLKPEDTEVYYCNTDAKRYIRIYWGQGTQVTVSS”: the “polyreactivity (PSR sort gate)” value is given as “high polyreactivity”.

On to “QVQLVESGGGLVHAGGSLSLSCAASGSTFKDYAMGWYRQAPGKERELVAAISKGATRTYYADSVKGRFTISRDNAKITVYLQINSLKPEDTAVYYCAADRLKFRGEYDYWGQGSQVTVSS”, for which the “polyreactivity (PSR sort gate)” value was “high polyreactivity”.

Regarding “QVQLVESGGGLVHAGRSLLLSCAASGRTYRLDAMGWYRQSPGKERELVAAITRGGRTNYADSVKGRFTISRDNAKNTFYLQMNSLKPEDTAVYYCADRYVERPTDYYYWGQGTQVTVSS”, the “polyreactivity (PSR sort gate)” value is “low polyreactivity”.

Turning to “QVQLVESGGGLVHAGVSLRLSCAASGIIFAHYAKGWYRQAPGKERELVAAISSSGATTYYADSVKGRFTISRDNAKNTVYLQMNSLKPEDTAVYYCNTETYHVRRLFDYWGQGTQVTVSS”, the “polyreactivity (PSR sort gate)” value is on record as “low polyreactivity”.

As for “QVQLVESGGGLVHGGGSLRLSCAASGSILHYNTMGWYRQAPGKEREFVASISYSGGSTYYADSVKGRFTISRDNAKNTVYLQMNSLKPEDTAVYYCATEGMDFWFIYYYWGQGTQVTVSS”, the “polyreactivity (PSR sort gate)” value is given as “low polyreactivity”.

Consider “QVQLVESGGGLVHPGGSLRLSCDASGLILDGYAMGWYRQAPGKERELVAAITRSGGRTYYADSVKGRFTISRDNAKNTVNLQKNRQKPVDTAVYHSAALGWSGRYRYDYWGQGTQVTVSS”, for which the “polyreactivity (PSR sort gate)” value is recorded as “high polyreactivity”.

As for “QVQLVESGGGLVKAGGILSLSCAASGRTFAFYGMGSYRQAPGKERELVATIRGTGGSTYYADSVKGRFTISRDNAKNTVYLQMNSLKPEDTAVYYCAAVNRRYPRYDYWGLGTQVTVSS”, the “polyreactivity (PSR sort gate)” value is “high polyreactivity”.

Turning to “QVQLVESGGGLVKAGGSLRLICAAYGRIFALYAMGWYRHAPGKERELVAAINNGASTNYADSVKWRFTISRDNAKNTVYVQMNSLKPEDTAVYYCAVRAARSGQRFYSWGQGTQVTVSS”, the “polyreactivity (PSR sort gate)” value is “high polyreactivity”.

For “QVQLVESGGGLVKAGGSLRLRCAASGITFRYNAMGWYRQAPGKERELVAAITSSGGRTYYADSVKGRFTISRDNAKNTVYLQMNSLKPEDTAVYYCAARTRYRKEYDYWGQGTQVTVSS”, the “polyreactivity (PSR sort gate)” value is listed as “high polyreactivity”.

Take “QVQLVESGGGLVKAGGSLRLSCAASGFTFAYYAMGWYRQAPGKERELVAAISGSGGSTYYADSVKGRFTISRDNAKNTVYLQMNSLKPEDTAVYYCAAARRSTWSYSYYWGQGTQVTVSS”: the “polyreactivity (PSR sort gate)” value is “high polyreactivity”.

Turning to “QVQLVESGGGLVKAGGSLRLSCAASGFTFPQYAMGWYRQAPGKERELVAAISKRSVGTRYADSVKGRFTISRDNAKNTLYLQMNSLKPEDTAVYYCNKYGQVPGYFSLDYWGQGTQVTVSS”, the “polyreactivity (PSR sort gate)” value was “high polyreactivity”.

“QVQLVESGGGLVKAGGSLRLSCAASGFTYSTYAMGWYRQAPGKEREFVAAISRSGGSTYYADSVKGRFTISRDNAKNTVYLQMNSLKPEDTAVYYCAVRPYRSAGGSVTRGAYYYWGQGTQVTVSS”: the “polyreactivity (PSR sort gate)” value is “high polyreactivity”.
